This passage reports Kd, koff and kon results from patent US20240352133A1.

Assay [1] addresses Recombinant human his-tagged IGF 1R extracellular domain protein (human) (UniProt P08069). The assay is described as follows: SPR, captured antibody, pH 7.4. In general terms: In SPR one partner is held on a chip, and binding of the other changes the refractive index at the surface.
The target is the same in assay [2]. Description: SPR, captured antibody, dissociation at pH 6.

B1: VRDN-03109 (antibody, V domains shown)
VH: QVQLVESGGGVVQPGRSLRLSCAASGFTFSSYSMHWVRQAPGKGLEWVAIIWFDGSSKYYPGSVKGRFTISRDNSKNTLYLQMNSLRAEDTAVYYCARELGRRYFDIWGRGTLVTVSS
VL: EIVMTQSPATLSVSPGERATLSCRASQGVSSYLAWYQQKPGQAPRLLIYGASTRATGIPARFSGSGSGTEFTLTISSLQSEDFAVYYCQQRSRWPPWTFGQGTKLEIK
As usually defined, the Kd is the equilibrium constant for the complex coming apart. One may read the koff as the rate constant with which the complex falls apart. By kon is commonly meant the rate constant with which the complex forms. Consider B1, for which, in assay [1], the Kd is 6.74 nM, the koff is 0.000286 s⁻¹ and the kon came out at 42500 M⁻¹ s⁻¹. In addition, in assay [2], the Kd is 2.72 nM, the koff came to 0.00049 s⁻¹ and the kon stood at 180000 M⁻¹ s⁻¹.

B2: VRDN-03113 (antibody, V domains shown)
VH: QVQLVESGGGVVQPGRSLRLSCAASGFTFSDHYMDWVRQAPGKGLEWVAIIWFDGSSKYYADSVKGRFTISRDNSKNTLYLQMNSLRAEDTAVYYCARELGRRYFDIWGRGTLVTVSS
VL: EIVMTQSPATLSVSPGERATLSCRASQGVSSYLAWYQQKPGQAPRLLIYGASTRATGIPARFSGSGSGTEFTLTISSLQSEDFAVYYCQQRSRWPPWTFGQGTKLEIK
For the molecule B2, in assay [1], the Kd came to 2.76 nM, the koff came out at 0.00388 s⁻¹ and the kon turned out to be 1.41e+06 M⁻¹ s⁻¹. In assay [2], the Kd was found to be 2.48 nM, the koff was 0.00191 s⁻¹ and the kon was found to be 771000 M⁻¹ s⁻¹.

B3: VRDN-03110 (antibody, V domains shown)
VH: QVQLVESGGGVVQPGRSLRLSCAASGFTFSDYTMHWVRQAPGKGLEWVAIIWFDGSSKYYADSVKGRFTISRDNSKNTLYLQMNSLRAEDTAVYYCARELGRRYFDIWGRGTLVTVSS
VL: EIVMTQSPATLSVSPGERATLSCRASQGVSSYLAWYQQKPGQAPRLLIYGASTRATGIPARFSGSGSGTEFTLTISSLQSEDFAVYYCQQRSRWPPWTFGQGTKLEIK
Regarding B3, in assay [1], the dissociation constant (Kd) turned out to be 3.45 nM, the koff worked out at 0.000209 s⁻¹ and the kon is 60500 M⁻¹ s⁻¹. In addition, in assay [2], the Kd was found to be 1.7 nM, the koff worked out at 0.000378 s⁻¹ and the kon stood at 223000 M⁻¹ s⁻¹.

B4: VRDN-03112 (antibody, V domains shown)
VH: QVQLVESGGGVVQPGRSLRLSCAASGFTFSDYTMHWVRQAPGKGLEWVAIIWFDGSSKYYPGSVKGRFTISRDNSKNTLYLQMNSLRAEDTAVYYCARELGRRYFDIWGRGTLVTVSS
VL: EIVMTQSPATLSVSPGERATLSCRASQGVSSYLAWYQQKPGQAPRLLIYGASTRATGIPARFSGSGSGTEFTLTISSLQSEDFAVYYCQQRSRWPPWTFGQGTKLEIK
As for B4, in assay [1], the dissociation constant Kd was 2.97 nM, the koff was 0.000322 s⁻¹ and the kon came to 109000 M⁻¹ s⁻¹. Further, in assay [2], the Kd was 2.74 nM, the koff turned out to be 0.000463 s⁻¹ and the kon was found to be 169000 M⁻¹ s⁻¹.

B5: VRDN-03111 (antibody, V domains shown)
VH: QVQLVESGGGVVQPGRSLRLSCAASGFTFSDYTMHWVRQAPGKGLEWVAIIWFDGSSKYYVDSVKGRFTISRDNSKNTLYLQMNSLRAEDTAVYYCARELGRRYFDIWGRGTLVTVSS
VL: EIVMTQSPATLSVSPGERATLSCRASQGVSSYLAWYQQKPGQAPRLLIYGASTRATGIPARFSGSGSGTEFTLTISSLQSEDFAVYYCQQRSRWPPWTFGQGTKLEIK
In the case of B5, in assay [1], the Kd worked out at 4.71 nM, the koff worked out at 0.000362 s⁻¹ and the kon came out at 77000 M⁻¹ s⁻¹. For the same molecule, in assay [2], the Kd is 2.06 nM, the koff stood at 0.000479 s⁻¹ and the kon was found to be 233000 M⁻¹ s⁻¹.

B6: VRDN-03114 (antibody, V domains shown)
VH: QVQLVESGGGVVQPGRSLRLSCAASGFTFSDHYMDWVRQAPGKGLEWVAIIWFDGSSKYYVDSVKGRFTISRDNSKNTLYLQMNSLRAEDTAVYYCARELGRRYFDIWGRGTLVTVSS
VL: EIVMTQSPATLSVSPGERATLSCRASQGVSSYLAWYQQKPGQAPRLLIYGASTRATGIPARFSGSGSGTEFTLTISSLQSEDFAVYYCQQRSRWPPWTFGQGTKLEIK
With B6, in assay [1], the Kd was 33.4 nM, the koff came out at 0.000991 s⁻¹ and the on-rate (kon) came out at 29700 M⁻¹ s⁻¹. Besides, in assay [2], the Kd is 0.0565 nM, the koff worked out at 6.9e-06 s⁻¹ and the kon was determined as 122000 M⁻¹ s⁻¹.
